Data on 7 molecules can be found in US20250223366A1 (BIOTHEUS, published 2025).

Assay [1] has as its target T1, EGFR expressed on H292 cells (human, UniProt P00533 25-1210).
T1 construct: whole, on cells; H292 cells also express c-Met; also called epidermal growth factor receptor
Nature of the assay: flow cytometry on H292 cells, blocking of biotin-h.EGF (100 nM) binding to EGFR; EGFRxMET-136; blocking of EGF on H292 cells. Here is the method: (§1) H292 cells, which were human non-small cell lung cancer cells purchased from Procell, were capable of expressing EGFR and c-Met receptors. H292 cells were expanded to a suitable density, digested and detached from the cell culture flask, resuspended to 1×10⁶ cells/ml, added to a 96-well flow plate, 100 μL per well, and centrifuged for later use. The antibody to be tested was subjected to 3-fold dilution with PBS, starting from 200 nM, and the diluted sample was added to the 96-well flow plate with cells, 100 μL/well, and incubated at 25° C. for 60 min. […] Streptavidin-FITC (purchased from Jackson) was diluted 100 times with PBS and added to the plate, 100 µL/well, incubated at 4° C. for 30 min, and washed twice with PBS. 100 μL/well of PBS was added to resuspend the cells, then the cells were detected on a CytoFlex (Beckman) flow cytometer, and the corresponding MFI was calculated.

Assay [2] has as its target T2, EGFR and c-Met receptors co-expressed on A375 or H292 cells (human, UniProt P00533 25-1210; P08581 25-1390).
T2 construct: whole, on cells; Not a complex; also called EGFR and c-Met positive tumor cells
Nature of the assay: flow cytometry, binding to A375 cells (low EGFR and c-Met expression); A375 cells. From the text:
(§2) A375 cells were human malignant melanoma cells and purchased from Addexbio, which were capable of low expression of EGFR and c-Met receptors. H292 cells were human lung adenocarcinoma cells and purchased from procell, which were capable of high expression of EGFR and c-Met receptors. HCC827 cells were human non-small cell lung cancer cells and purchased from the Cell Bank of the Chinese Academy of Sciences, which were capable of high expression of EGFR and c-Met receptors. The expanded cells were adjusted to an appropriate cell density, and added to a 96-well flow plate. After centrifugation, the gradiently diluted samples to be tested were added and incubated at 4° C. for 1 hour. The cells were washed twice with PBS, then a fluorescent secondary antibody, diluted to an appropriate concentration, was added, incubated at 4° C. for 30 min, and washed twice with PBS. The cells were resuspended by PBS, and detected on a CytoFlex flow cytometer, and corresponding MFI was calculated.

Assay [3] addresses T1, EGFR expressed on H292 cells. Kind of assay: flow cytometry on H292 cells, blocking of biotin-h.EGF (100 nM) binding to EGFR; EGFRxMET-187; blocking of EGF on H292 cells. Here is the method:
as §1

The target in assay [4] is T2, EGFR and c-Met receptors co-expressed …. Nature of the assay: flow cytometry, binding to A375 cells (low EGFR and c-Met expression).
From the text: as §2

For assay [5] the target is unchanged. Nature of the assay: flow cytometry, binding to H292 cells (high EGFR and c-Met expression).
From the text: as §2

Assay [6] has as its target T1, EGFR expressed on H292 cells. Nature of the assay: flow cytometry on H292 cells; antibody titrated, then 100 nM Biotin-h.EGF as the blocked ligand, detected with Streptavidin-FITC. Here is the method: as §1
For the next assay, the target named is T3, human c-MET protein (human, UniProt P08581 25-932).
T3 construct: The construct is not described; also called cellular mesenchymal epithelial transition factor (c-Met) antigen
Kind of assay: ForteBio (BLI) affinity assay, human c-Met protein. Here is the method: (§3) After the antibodies were prepared, the ForteBio affinity assay was performed according to the reported method (Estep, P et al., Determination of antibody-antigen affinity and epitope binding based on high-throughput methods. MAbs, 2013.5(2): p. 270-8).

The next assay addresses T4, monkey c-MET protein (monkey, UniProt A0A2K5UM36 25-932).
T4 construct: The construct is not described
Kind of assay: ForteBio (BLI) affinity assay, monkey c-Met protein. Here is the method:
as §3

Positions count from the first letter of the chain named.

T3 sequence (P08581 25-932 limits assumed): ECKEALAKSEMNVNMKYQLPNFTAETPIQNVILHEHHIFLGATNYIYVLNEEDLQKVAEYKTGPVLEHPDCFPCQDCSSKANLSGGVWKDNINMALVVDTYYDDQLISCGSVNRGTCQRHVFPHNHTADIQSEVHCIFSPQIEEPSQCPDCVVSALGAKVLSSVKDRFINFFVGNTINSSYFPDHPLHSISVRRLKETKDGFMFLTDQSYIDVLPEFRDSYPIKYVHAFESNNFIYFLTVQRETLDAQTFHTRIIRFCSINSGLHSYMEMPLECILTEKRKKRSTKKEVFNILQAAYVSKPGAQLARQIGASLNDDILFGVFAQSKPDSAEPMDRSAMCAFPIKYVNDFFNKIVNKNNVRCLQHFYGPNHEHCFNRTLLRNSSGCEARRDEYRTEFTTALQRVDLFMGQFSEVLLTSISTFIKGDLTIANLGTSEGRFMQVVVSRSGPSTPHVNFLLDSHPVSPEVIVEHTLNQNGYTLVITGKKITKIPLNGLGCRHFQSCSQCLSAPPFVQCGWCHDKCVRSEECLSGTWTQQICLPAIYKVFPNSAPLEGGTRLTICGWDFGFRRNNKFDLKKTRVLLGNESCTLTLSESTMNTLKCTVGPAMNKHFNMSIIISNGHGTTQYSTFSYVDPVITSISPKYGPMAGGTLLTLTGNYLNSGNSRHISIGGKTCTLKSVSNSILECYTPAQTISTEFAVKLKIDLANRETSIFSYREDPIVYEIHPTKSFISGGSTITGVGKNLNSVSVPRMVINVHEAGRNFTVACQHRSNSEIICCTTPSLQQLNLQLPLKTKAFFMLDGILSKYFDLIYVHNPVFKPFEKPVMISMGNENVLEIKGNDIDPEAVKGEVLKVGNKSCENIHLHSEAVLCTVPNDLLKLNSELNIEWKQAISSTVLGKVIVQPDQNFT
T4 sequence (A0A2K5UM36 entry or part of it limits assumed): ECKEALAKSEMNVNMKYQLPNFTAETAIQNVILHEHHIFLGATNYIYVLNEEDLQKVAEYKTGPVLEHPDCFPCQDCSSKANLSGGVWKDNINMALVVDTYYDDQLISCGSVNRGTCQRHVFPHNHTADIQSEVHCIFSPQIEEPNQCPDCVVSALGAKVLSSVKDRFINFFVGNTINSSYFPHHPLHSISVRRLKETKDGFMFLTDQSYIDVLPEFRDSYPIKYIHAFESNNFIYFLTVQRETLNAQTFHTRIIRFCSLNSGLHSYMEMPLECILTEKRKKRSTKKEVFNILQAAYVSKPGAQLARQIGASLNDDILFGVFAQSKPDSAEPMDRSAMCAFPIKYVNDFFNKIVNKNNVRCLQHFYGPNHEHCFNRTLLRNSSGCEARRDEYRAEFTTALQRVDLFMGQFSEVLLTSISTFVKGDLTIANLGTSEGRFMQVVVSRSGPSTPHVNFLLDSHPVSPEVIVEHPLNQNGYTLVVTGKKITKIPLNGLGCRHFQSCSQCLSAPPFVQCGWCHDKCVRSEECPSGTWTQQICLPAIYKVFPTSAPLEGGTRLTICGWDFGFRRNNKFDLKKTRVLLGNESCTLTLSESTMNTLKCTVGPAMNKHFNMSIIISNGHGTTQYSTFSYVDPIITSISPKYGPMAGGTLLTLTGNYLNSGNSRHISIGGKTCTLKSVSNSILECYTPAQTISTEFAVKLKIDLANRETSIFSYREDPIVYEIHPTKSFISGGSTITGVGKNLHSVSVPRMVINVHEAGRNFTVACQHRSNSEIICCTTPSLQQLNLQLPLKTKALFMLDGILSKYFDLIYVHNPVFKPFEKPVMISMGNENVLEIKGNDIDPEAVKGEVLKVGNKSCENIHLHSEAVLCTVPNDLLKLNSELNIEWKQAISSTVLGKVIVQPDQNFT

B1: EGFRxMET-136 (bispecific antibody, human IgG1, kappa)
heavy 1: not shown
light 1: not shown
heavy 2: not shown
light 2: DIVMTQSPSSVSASVGDRVTITCRASQGISSWLAWYQQKPGKAPKLLIYAVSSLQSGVPSRFSGSGSGTDFTLTISSLQPEDFATYFCQQANSFPLTFGGGTKVEIKRTVAAPSVFIFPPSDEQLKSGTASVVCLLNNFYPREAKVQWKVDNALQSGNSQESVTEQDSKDSTYSLSSTLTLSKADYEKHKVYACEVTHQGLSSPVTKSFNRGEC
notes: 1+1 heterodimeric IgG1-type bispecific
For the molecule B1, in assay [1], the IC50 was 3.15 nM.

B2: EGFRxMET-136 Afu (bispecific antibody, human IgG1, kappa)
heavy 1: not shown
light 1: B1 light 2 with T129R, T178R, T180Q
heavy 2: not shown
light 2: DIQLTQSPSSLSASVGDRVTITCRASQDISSALVWYQQKPGKAPKLLIYDASSLESGVPSRFSGSESGTDFTLTISSLQPEDFATYYCQQFNSYPLTFGGGTKVEIKRTVAAPSVFIFPPSDEELKSGTASVQCLLNNFYPREAKVQWKVDNALQSGNSQESVTEQDSKDSTYSLSSELTLSKADYEKHKVYACEVTHQGLSSPVTKSFNRGEC
modifications: afucosylated glycan
In turn, B2 had an EC50 in assay [2] of 1.35 nM.

B3: EGFRxMET-187 (bispecific antibody, human IgG1, kappa)
heavy 1: not shown
light 1: not shown
heavy 2: not shown
light 2: B1 light 2 with K45N, V51A, S53N, Q55P, D70V, F87Y, A91S
notes: as for B1
The molecule B3 yielded an IC50 in assay [3] of 2.9 nM.

B4: EGFRxMET-187 Afu (bispecific antibody, human IgG1, kappa)
heavy 1: not shown
light 1: not shown
heavy 2: not shown
light 2: B1 light 2 with K45N, V51A, S53N, Q55P, D70V, F87Y, A91S
modifications: afucosylated glycan
For the molecule B4, the EC50 in assay [4] amounted to 1.05 nM; in assay [5], 1.46 nM.

B5: Amivantamab analog (bispecific antibody, human IgG1, kappa)
anti-EGFR heavy chain (EGFR-1 Fc): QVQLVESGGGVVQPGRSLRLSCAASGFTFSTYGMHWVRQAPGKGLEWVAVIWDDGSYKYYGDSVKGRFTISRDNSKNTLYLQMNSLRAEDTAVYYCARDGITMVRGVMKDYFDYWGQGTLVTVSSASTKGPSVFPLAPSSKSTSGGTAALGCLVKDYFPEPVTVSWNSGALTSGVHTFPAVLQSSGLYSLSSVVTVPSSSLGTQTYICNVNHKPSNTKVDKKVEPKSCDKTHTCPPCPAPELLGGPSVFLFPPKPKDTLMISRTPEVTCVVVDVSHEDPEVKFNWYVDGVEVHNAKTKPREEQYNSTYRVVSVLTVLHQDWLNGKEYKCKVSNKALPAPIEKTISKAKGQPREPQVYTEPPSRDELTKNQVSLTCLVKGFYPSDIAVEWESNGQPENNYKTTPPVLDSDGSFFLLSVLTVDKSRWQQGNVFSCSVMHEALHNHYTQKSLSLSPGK
anti-EGFR light chain: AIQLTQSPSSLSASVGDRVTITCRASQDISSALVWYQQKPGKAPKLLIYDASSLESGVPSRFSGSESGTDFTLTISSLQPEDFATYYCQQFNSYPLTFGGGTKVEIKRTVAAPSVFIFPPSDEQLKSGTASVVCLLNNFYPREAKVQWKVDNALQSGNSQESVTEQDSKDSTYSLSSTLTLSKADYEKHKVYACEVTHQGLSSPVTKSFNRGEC
anti-cMet control heavy chain (cMet-2 Fc): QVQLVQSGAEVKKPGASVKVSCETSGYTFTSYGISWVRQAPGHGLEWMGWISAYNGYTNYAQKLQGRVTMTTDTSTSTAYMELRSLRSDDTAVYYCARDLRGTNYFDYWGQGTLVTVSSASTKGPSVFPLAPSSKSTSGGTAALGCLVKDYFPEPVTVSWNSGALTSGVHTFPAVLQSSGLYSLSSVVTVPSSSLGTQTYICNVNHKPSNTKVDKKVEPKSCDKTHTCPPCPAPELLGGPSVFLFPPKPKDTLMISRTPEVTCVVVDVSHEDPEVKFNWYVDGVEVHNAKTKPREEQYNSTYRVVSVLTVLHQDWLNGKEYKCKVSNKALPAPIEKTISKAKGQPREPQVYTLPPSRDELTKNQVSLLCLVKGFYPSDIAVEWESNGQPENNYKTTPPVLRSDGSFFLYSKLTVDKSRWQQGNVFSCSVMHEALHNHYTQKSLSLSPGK
anti-cMet control light chain: DIQMTQSPSSVSASVGDRVTITCRASQGISNWLAWFQHKPGKAPKLLIYAASSLLSGVPSRFSGSGSGTDFTLTISSLQPEDFATYYCQQANSFPITFGQGTRLEIKRTVAAPSVFIFPPSDEQLKSGTASVVCLLNNFYPREAKVQWKVDNALQSGNSQESVTEQDSKDSTYSLSSTLTLSKADYEKHKVYACEVTHQGLSSPVTKSFNRGEC
notes: also called control antibody; control molecule Amivantamab
Molecule B5 displayed an IC50 in assay [6] of 2.64 nM.

B6: anti-c-MET antibody 136 (antibody, V domains shown)
VH: EVQLQESGPGLVKPSETLSLTCTVSGGSVTSVNYYWKWIRQPPGKGLEWIGYISYSGNTNYNPSLKSRVTISVDTSKNQFSLKLSSVTAADTAVYYCVRAPYYYMDVWSKGTTVTVSS
VL: DIVMTQSPSSVSASVGDRVTITCRASQGISSWLAWYQQKPGKAPKLLIYAVSSLQSGVPSRFSGSGSGTDFTLTISSLQPEDFATYFCQQANSFPLTFGGGTKVEIK
notes: Candidate from yeast display screening, as tested in the ForteBio assay
Turning to B6, in the assay with human c-MET protein, the affinity, expressed as Kd, was 0.0293 nM; the koff was found to be 6.71e-06 s⁻¹; the kon is 229000 M⁻¹ s⁻¹. In the assay with monkey c-MET protein, this molecule registered a Kd of 1.16 nM, a koff of 0.000426 s⁻¹ and a kon of 369000 M⁻¹ s⁻¹.

B7: anti-c-MET antibody 187 (antibody, V domains shown)
VH: ELQLQESGPGLVKPSETLSLTCTVSGGSISSSSYYWGWIRQSPGKGLEWIGSRYYSGNTYYNPSLKSRVTMSVDTSKNQFSLKLRSVTAADTAVYYCARQVYDYWRDWGQGALVTVSS
VL: B6 VL with K45N, V51A, S53N, Q55P, D70V, F87Y, A91S
notes: as for B6
In the case of B7, in the assay with human c-MET protein, the Kd is 1.68 nM, the koff is 0.000369 s⁻¹ and the kon was determined as 220000 M⁻¹ s⁻¹. In the assay with monkey c-MET protein, this molecule displayed a Kd of 2.92 nM, a koff of 0.000947 s⁻¹ and a kon of 324000 M⁻¹ s⁻¹.
